This note sets out measurements from the RNAGym collection of RNA variant scans (doi:10.7554/elife.80360).

B1: CPEB3 Ribozyme (parent)
chain: GGGGGCCACAGCAGAAGCGUUCACGUCGCGGCCCCUGUCAGAUUCUGGUGAAUCUGCGAAUUCUGCUGU

This series covers variants of B1. Description: self-cleavage, relative activity (ratio to wild type); higher = more cleavage; co-transcriptional.
In the case of GGGGGCCACAGCAGAAGCGUUCACGUCGCGGCCGCAGUCAGAUUCUGGUGAAUCUGCGAAUUCUGCUGU [C34G U36A], the self-cleavage came out at 0.192.
With GGGGGCCACAGCAGAAGCGUUCACGUCGCGGCCGCUGUCAGAUUCUGGUGAAUCUCCGAAUUCUGCUGU [C34G G56C] the figure was 0.261.
Regarding GGGGGCCACAGCAGAAGCGUUCACGUCGCGGCCACUGUCAGAUUCUGGUGAAUCUGCGAAUUCUGCAGU [C34A U67A], the self-cleavage was determined as 0.883.
With GGGGGCCACAGCAGAAGCGUUCACGUCGCGGCCACUGUCAGAUUCUGGUGAAUCUGCGAAUUCUGCGGU [C34A U67G] the figure was 0.903; with GGGGGCCACAGCAGAAGCGUUCACGUCGCGGCCACUGUCAGAUUCUGGUGAAUCUGCGAAUUCUGCCGU [C34A U67C], 0.938.
With GGGGGCCACAGCAGAAGCGUUCACGUCGCGGCCACUGUCAGAUUCUGGGGAAUCUGCGAAUUCUGCUGU [C34A U49G] the figure was 0.865.
With GGGGGCCACAGCAGAAGCGUUCACGUCGCGGCCGCUGUCAGAUUCUGGUGACUCUGCGAAUUCUGCUGU [C34G A52C] the figure was 0.618; with GGGGGCCACAGCAGAAGCGUUCACGUCGCGGCCGCUGUCAGAUUCUGGUGAGUCUGCGAAUUCUGCUGU [C34G A52G], 0.771.
On to GGGGGCCACAGCAGAAGCGUUCACGUCGCGGCCGCUGUCAGAUUCUGGUGAAUCUGCCAAUUCUGCUGU [C34G G58C], for which the self-cleavage amounted to 0.654.
Under GGGGGCCACAGCAGAAGCGUUCACGUCGCGGCCGCUGUCAGAUUCUGGUGAAUCUGCAAAUUCUGCUGU [C34G G58A] stands 0.463; under GGGGGCCACAGCAGAAGCGUUCACGUCGCGGCCGCUGUCAGAUUCUGGUGAAUCUGCUAAUUCUGCUGU [C34G G58U], 0.772.
Under GGGGGCCACAGCAGAAGCGUUCACGUCGCGGCCACUGUCAGAUUCAGGUGAAUCUGCGAAUUCUGCUGU [C34A U46A] stands 0.848.
Under GGGGGCCACAGCAGAAGCGUUCACGUCGCGGCCACUGUCAGAUUCCGGUGAAUCUGCGAAUUCUGCUGU [C34A U46C] stands 0.829; under GGGGGCCACAGCAGAAGCGUUCACGUCGCGGCCGCUGUCAGAUUCUGGUGAAUCUGCGAAUUCUGUUGU [C34G C66U], 0.643; under GGGGGCCACAGCAGAAGCGUUCACGUCGCGGCCGCUGUCAGAUUCUGGUGAAUCUGCGAAUUCUGAUGU [C34G C66A], 0.411.
GGGGGCCACAGCAGAAGCGUUCACGUCGCGGCCGCUGUCAGAUUCUGGUGAAUCUGCGAAUUCUACUGU [C34G G65A]: the self-cleavage is 0.58.
As for GGGGGCCACAGCAGAAGCGUUCACGUCGCGGCCGCUGUCAGAUUCUGGUGAAUCUGCGAAUUUUGCUGU [C34G C63U], the self-cleavage amounted to 0.666.
As to GGGGGCCACAGCAGAAGCGUUCACGUCGCGGCCGCUGUCAGAUUCUGGUGAAUCUGCGAAUUAUGCUGU [C34G C63A], the self-cleavage came out at 0.424.
Consider GGGGGCCACAGCAGAAGCGUUCACGUCGCGGCCACUGUCAGAUUCUGGUGAAUCAGCGAAUUCUGCUGU [C34A U55A], for which the self-cleavage worked out at 0.529.
For the variant GGGGGCCACAGCAGAAGCGUUCACGUCGCGGCCGCUGUCAGAUUCUGGUGAAUCUGUGAAUUCUGCUGU [C34G C57U], the self-cleavage came out at 0.348.
Under GGGGGCCACAGCAGAAGCGUUCACGUCGCGGCCGCUGUCAGAUUCUGGUGAAUCUGAGAAUUCUGCUGU [C34G C57A] stands 0.311.
Under GGGGGCCACAGCAGAAGCGUUCACGUCGCGGCCACUGUCAGAUUCUGGUGAAUCUGCGAAUUCUGCUGC [C34A U69C] stands 0.992.
GGGGGCCACAGCAGAAGCGUUCACGUCGCGGCCGCUGUCAGUUUCUGGUGAAUCUGCGAAUUCUGCUGU [C34G A42U]: the self-cleavage worked out at 0.544.
Under GGGGGCCACAGCAGAAGCGUUCACGUCGCGGCCGCUGUCAGGUUCUGGUGAAUCUGCGAAUUCUGCUGU [C34G A42G] stands 0.637; under GGGGGCCACAGCAGAAGCGUUCACGUCGCGGCCACUGUCAGAUUCUGGUGAAUCUGCGAAUUCGGCUGU [C34A U64G], 0.629; under GGGGGCCACAGCAGAAGCGUUCACGUCGCGGCCGCUGUCAGAUUCUGGUGAAUCUGCGAGUUCUGCUGU [C34G A60G], 0.407.
Under GGGGGCCACAGCAGAAGCGUUCACGUCGCGGCCGCUGUCAGAUUCUGGUGAAUCUGCGAUUUCUGCUGU [C34G A60U] stands 0.39; under GGGGGCCACAGCAGAAGCGUUCACGUCGCGGCCGCUGUCAGAUUCUGGUGAAUCUGCGACUUCUGCUGU [C34G A60C], 0.331; under GGGGGCCACAGCAGAAGCGUUCACGUCGCGGCCGCUGUCAGAUUCUGGUGAAUCUGCGAAUUCUGCUAU [C34G G68A], 0.931.
Regarding GGGGGCCACAGCAGAAGCGUUCACGUCGCGGCCACUGUCAGAUUCUGGUGAAUCUGCGAAGUCUGCUGU [C34A U61G], the self-cleavage is 0.426.
With GGGGGCCACAGCAGAAGCGUUCACGUCGCGGCCGCUGUCAGAUUCUGGUAAAUCUGCGAAUUCUGCUGU [C34G G50A] the figure was 0.707; with GGGGGCCACAGCAGAAGCGUUCACGUCGCGGCCGCUGUCAGAUUCUGGUGAAUCUGCGCAUUCUGCUGU [C34G A59C], 0.291; with GGGGGCCACAGCAGAAGCGUUCACGUCGCGGCCGCUGUGAGAUUCUGGUGAAUCUGCGAAUUCUGCUGU [C34G C39G], 0.455.
For GGGGGCCACAGCAGAAGCGUUCACGUCGCGGCCGCUGUUAGAUUCUGGUGAAUCUGCGAAUUCUGCUGU [C34G C39U], the self-cleavage is 0.439.
Under GGGGGCCACAGCAGAAGCGUUCACGUCGCGGCCGCUGCCAGAUUCUGGUGAAUCUGCGAAUUCUGCUGU [C34G U38C] stands 0.441.
With GGGGGCCACAGCAGAAGCGUUCACGUCGCGGCCGCUGGCAGAUUCUGGUGAAUCUGCGAAUUCUGCUGU [C34G U38G] the figure was 0.202; with GGGGGCCACAGCAGAAGCGUUCACGUCGCGGCCGCUCUCAGAUUCUGGUGAAUCUGCGAAUUCUGCUGU [C34G G37C], 0.213.
As to GGGGGCCACAGCAGAAGCGUUCACGUCGCGGCCACUGUCAGAUACUGGUGAAUCUGCGAAUUCUGCUGU [C34A U44A], the self-cleavage is 0.511.
Under GGGGGCCACAGCAGAAGCGUUCACGUCGCGGCCACUGUCAGACUCUGGUGAAUCUGCGAAUUCUGCUGU [C34A U43C] stands 0.496.
